Results on four substances are retold here after article PMC8691596.

What is called Kd is the free concentration of one partner at which half of the binding sites on the other are occupied at equilibrium, for simple one-to-one binding.

Values joined by “and” are separate entries in the source; they are usually repeats but may differ in a detail not shown here. Identical values can stand only once. Like-named read-outs stand apart in the source and are kept apart here.

For experiment [1], the target named is human FcγRIIa H131 extracellular domain, C-terminal hexa-His (independently-made panel) (human) (UniProt P12318).
The target in experiment [2] is human FcγRI (CD64), histidine-tagged recombinant (human) (UniProt P12314). The experiment is described as follows: SPR; His-tagged Fc receptor captured by anti-histidine antibody immobilised on CM5; antibody injected at 100 μg/mL for 1 min; response about 5 s before end of injection, blank subtracted; 25°C, HBS-EP+; Biacore T200.
Experiment [3] has the same target. The experiment is described as above. The source holds these as a separate data set.
Experiment [4] has as its target human FcγRIIb (CD32b), histidine-tagged recombinant (human) (UniProt P31994). The description is as above.
In experiment [5] the target is human FcγRIIa (CD32a) R131 allele, histidine-tagged recombinant (human) (UniProt P12318). Described as above.
Experiment [6] has as its target human FcγRIIIa (CD16a) F158 allele, histidine-tagged recombinant (human) (UniProt P08637). The description is as above.
Experiment [7] has as its target human FcγRIIIb (CD16b) NA2 allele, histidine-tagged recombinant (human) (UniProt O75015). Described as above.
Experiment [8] addresses mouse FcγRI (CD64), histidine-tagged recombinant (mouse) (UniProt P26151). The experiment is described as above.
The target in experiment [9] is human FcγRIIIa (CD16a) V158 allele, histidine-tagged recombinant (human) (UniProt P08637). Described as above.
For experiment [10], the target named is rat FcγRI (CD64), histidine-tagged recombinant (rat). Described as above.
The target of experiment [11] is human FcγRI (CD64), histidine-tagged recombinant (human) (UniProt P12314).
The target of experiment [12] is human FcγRIIb (CD32b), histidine-tagged recombinant (human) (UniProt P31994).
In experiment [13] the target is human FcγRIIIa (CD16a) V158 allele, histidine-tagged recombinant (human) (UniProt P08637).
The target of experiment [14] is mouse FcRn, heterodimer with β2 microglobulin, extracellular domain with C-terminal hexa-His (mouse | not stated) (UniProt Q61559). The experiment is described as follows: SPR. In general terms: Surface plasmon resonance follows binding to a sensor surface in real time, without labels.
Experiment [15] concerns the target cynomolgus monkey FcRn, heterodimer with β2 microglobulin, extracellular domain with C-terminal hexa-His (cynomolgus monkey | not stated) (UniProt Q8SPV9). The experiment is described as follows: SPR.
For experiment [16], the target named is human FcRn, heterodimer with β2 microglobulin, extracellular domain with C-terminal hexa-His (UniProt P55899). The experiment is described as follows: SPR.
human FcRn, heterodimer with β2 microglobulin, extracellular domain with C-terminal hexa-His, sequence (P55899 24-297, chain 1 of 2): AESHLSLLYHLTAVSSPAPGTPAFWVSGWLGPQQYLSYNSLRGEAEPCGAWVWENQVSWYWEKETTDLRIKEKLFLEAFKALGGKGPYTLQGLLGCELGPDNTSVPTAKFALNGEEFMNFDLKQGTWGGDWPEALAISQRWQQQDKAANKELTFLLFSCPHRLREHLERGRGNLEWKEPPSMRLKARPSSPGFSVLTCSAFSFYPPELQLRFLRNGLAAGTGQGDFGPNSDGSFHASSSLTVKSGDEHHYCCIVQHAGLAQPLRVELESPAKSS
human FcRn, heterodimer with β2 microglobulin, extracellular domain with C-terminal hexa-His, sequence (partner, as listed by the source, chain 2 of 2): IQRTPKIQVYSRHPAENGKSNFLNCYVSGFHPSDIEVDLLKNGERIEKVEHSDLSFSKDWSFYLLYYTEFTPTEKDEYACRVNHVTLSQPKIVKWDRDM

human FcγRIIIa (CD16a) V158 allele, histidine-tagged recombinant (human), sequence (P08637 17-208): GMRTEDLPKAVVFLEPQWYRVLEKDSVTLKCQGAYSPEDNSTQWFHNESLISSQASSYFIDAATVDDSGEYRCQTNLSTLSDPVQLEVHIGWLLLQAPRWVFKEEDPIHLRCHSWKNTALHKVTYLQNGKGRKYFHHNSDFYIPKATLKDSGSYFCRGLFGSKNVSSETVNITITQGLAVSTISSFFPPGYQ
human FcγRI (CD64), histidine-tagged recombinant (human), sequence (P12314 16-292): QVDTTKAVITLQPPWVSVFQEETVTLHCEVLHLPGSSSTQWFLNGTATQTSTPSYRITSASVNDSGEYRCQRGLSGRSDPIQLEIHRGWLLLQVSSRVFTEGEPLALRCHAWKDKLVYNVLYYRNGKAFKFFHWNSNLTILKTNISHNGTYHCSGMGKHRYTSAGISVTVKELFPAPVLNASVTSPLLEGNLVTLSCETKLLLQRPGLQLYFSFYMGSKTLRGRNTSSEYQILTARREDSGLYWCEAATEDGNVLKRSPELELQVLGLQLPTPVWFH
human FcγRIIb (CD32b), histidine-tagged recombinant (human), sequence (P31994 43-217): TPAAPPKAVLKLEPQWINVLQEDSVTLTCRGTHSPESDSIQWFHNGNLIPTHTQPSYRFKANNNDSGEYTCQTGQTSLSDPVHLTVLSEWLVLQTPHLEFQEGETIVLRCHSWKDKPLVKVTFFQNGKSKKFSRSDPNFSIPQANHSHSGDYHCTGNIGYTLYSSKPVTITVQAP
human FcγRIIIa (CD16a) F158 allele, histidine-tagged recombinant (human), sequence (P08637 17-208): as the sequence (P08637 17-208) above
human FcγRIIa (CD32a) R131 allele, histidine-tagged recombinant (human), sequence (P12318 34-217): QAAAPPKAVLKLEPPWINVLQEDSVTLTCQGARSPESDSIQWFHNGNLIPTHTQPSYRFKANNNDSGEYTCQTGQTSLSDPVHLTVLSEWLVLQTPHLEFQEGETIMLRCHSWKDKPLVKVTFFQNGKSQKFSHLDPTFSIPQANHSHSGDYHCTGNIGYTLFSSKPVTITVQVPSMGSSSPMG
mouse FcγRI (CD64), histidine-tagged recombinant (mouse), sequence (P26151 25-297): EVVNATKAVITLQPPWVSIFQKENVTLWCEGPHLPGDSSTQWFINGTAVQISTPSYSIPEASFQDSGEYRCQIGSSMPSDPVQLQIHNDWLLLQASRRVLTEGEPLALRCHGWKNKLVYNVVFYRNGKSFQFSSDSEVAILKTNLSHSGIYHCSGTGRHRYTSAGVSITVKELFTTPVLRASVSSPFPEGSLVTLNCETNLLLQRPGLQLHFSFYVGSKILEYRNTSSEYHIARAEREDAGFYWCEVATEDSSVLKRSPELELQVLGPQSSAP
human FcγRIIIb (CD16b) NA2 allele, histidine-tagged recombinant (human), sequence (O75015 17-200): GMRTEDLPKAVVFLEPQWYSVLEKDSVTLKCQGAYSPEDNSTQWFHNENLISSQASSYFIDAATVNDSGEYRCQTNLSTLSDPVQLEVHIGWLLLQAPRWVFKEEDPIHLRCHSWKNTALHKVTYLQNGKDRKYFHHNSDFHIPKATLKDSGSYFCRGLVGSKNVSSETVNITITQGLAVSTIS
human FcγRIIa H131 extracellular domain, C-terminal hexa-His (independently-made panel) (human), sequence (P12318 34-217): as the sequence (P12318 34-217) above
mouse FcRn, heterodimer with β2 microglobulin, extracellular domain with C-terminal hexa-His (mouse | not stated), sequence (Q61559 22-297, chain 1 of 2): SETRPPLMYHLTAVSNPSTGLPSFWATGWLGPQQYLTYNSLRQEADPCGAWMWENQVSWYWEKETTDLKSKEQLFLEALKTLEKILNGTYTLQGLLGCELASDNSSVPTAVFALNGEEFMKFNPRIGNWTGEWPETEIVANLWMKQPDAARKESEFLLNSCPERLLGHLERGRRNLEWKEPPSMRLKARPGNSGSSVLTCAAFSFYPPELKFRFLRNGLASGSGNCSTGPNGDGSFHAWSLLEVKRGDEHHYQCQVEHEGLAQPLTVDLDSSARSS
mouse FcRn, heterodimer with β2 microglobulin, extracellular domain with C-terminal hexa-His (mouse | not stated), sequence (P01887 21-119, chain 2 of 2, further chain): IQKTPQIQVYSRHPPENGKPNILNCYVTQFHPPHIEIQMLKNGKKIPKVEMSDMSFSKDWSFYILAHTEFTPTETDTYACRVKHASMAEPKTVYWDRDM
cynomolgus monkey FcRn, heterodimer with β2 microglobulin, extracellular domain with C-terminal hexa-His (cynomolgus monkey | not stated), sequence (Q8SPV9 24-297, chain 1 of 2): as the sequence (P55899 24-297, chain 1 of 2) above, with N39D, E44Q, G99S, S189G, S190N, L217M, S269T counted along it
cynomolgus monkey FcRn, heterodimer with β2 microglobulin, extracellular domain with C-terminal hexa-His (cynomolgus monkey | not stated), sequence (Q6T672 21-119, chain 2 of 2, further chain): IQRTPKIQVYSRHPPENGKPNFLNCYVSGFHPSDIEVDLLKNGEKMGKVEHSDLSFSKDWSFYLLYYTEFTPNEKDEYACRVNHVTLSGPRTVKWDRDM

For the substance “anti-CD20 (rituximab variable regions) human IgG1 wild type reference (antibody)”, in experiment [1], the Mean normalised luminescence (% of wild-type reference); Promega Fc effector bioassay, Jurkat NFAT-luciferase cells with the receptor + Raji cells, antibody 10 μg/mL was 100%.

As to “anti-CD20 IgG1 L234T/L235Q/G236R (antibody)”, the mean response in [2] was 3 RU; in experiment [3] it was -1.9 RU; in experiment [4] it was -1.1 RU; in experiment [5], 0.2 RU; in [6], -0.5 RU; in experiment [7], -1.5 RU. Besides, the mean response in experiment [8] was -4.1 RU; in experiment [9] it was -4 RU; in experiment [10], -2.5 RU. The response in [2] is 4.5 RU. The Mean normalised luminescence (% of wild-type reference); Promega Fc effector bioassay, Jurkat NFAT-luciferase cells with the receptor + Raji cells, antibody 10 μg/mL amounted to 1.9% in experiment [11], 1.7% in [12] and 2.1% in experiment [13].

On to “Remicade (rituximab, wild-type human IgG1) (from UniProt P01857)”, for which the figures for the Kd in [14], in [15] and in [16] were 71 nM, 347 nM and 562 nM, respectively.

Consider “anti-CD20 IgG1 L234S/L235V/G236R (antibody)”, for which the mean response in experiment [2] is 2.4 RU; in experiment [3], -1.6 RU; in experiment [4], -0.8 RU; in [5], 0.3 RU; in experiment [6], 0 RU; in experiment [7] it was 0.6 RU. For the same substance, the results for the mean response in experiment [8], in experiment [9] and in [10] were 0.1 RU, 0.8 RU and -0.4 RU, respectively. Besides, the response in [2] is 2.1 RU and 4.3 RU. Besides, the Mean normalised luminescence (% of wild-type reference); Promega Fc effector bioassay, Jurkat NFAT-luciferase cells with the receptor + Raji cells, antibody 10 μg/mL was found to be 1.9% in experiment [11], 1.7% in [12] and 2.1% in [13].
